According to paper PMC6555819, “Comprehensive study of nuclear receptor DNA binding provides a revised framework for understanding receptor specificity”:

B1: NRC3_wobSeed39_DR1_A19C_o1 (dsDNA)
DNA 1: GCCGAACTAGGTCAAAGGCCAGTGAAAGGCGACGTAGCGATTGACAGCGTAGAATGAAGG
DNA 2: CCTTCATTCTACGCTGTCAATCGCTACGTCGCCTTTCACTGGCCTTTGACCTAGTTCGGC
B2: NRC3_wobSeed39_DR1_G22C_o1 (dsDNA)
DNA 1: GCCGAACTAGGTCAAAGGACACTGAAAGGCGACGTAGCGATTGACAGCGTAGAATGAAGG
DNA 2: CCTTCATTCTACGCTGTCAATCGCTACGTCGCCTTTCAGTGTCCTTTGACCTAGTTCGGC
B3: NRC3_wobSeed29_DR1_A23G_o1 (dsDNA)
DNA 1: GCGCTTACGGGTCAAAGGTTATGGCATGAATAGAATGCGATTGACAGCGTAGAATGAAGG
DNA 2: CCTTCATTCTACGCTGTCAATCGCATTCTATTCATGCCATAACCTTTGACCCGTAAGCGC
B4: NRC3_wobSeed33_DR1_A13C_o1 (dsDNA)
DNA 1: GCATCTCTAGGTCAAAGTTCAGTGAATCCCGAGGATGCGATTGACAGCGTAGAATGAAGG
DNA 2: CCTTCATTCTACGCTGTCAATCGCATCCTCGGGATTCACTGAACTTTGACCTAGAGATGC
B5: NRC3_wobSeed97_DR4_G27A_o1 (dsDNA)
DNA 1: GCCAAACTAGGTCACGAAAGGTCAAAATCGAATGACGCGATTGACAGCGTAGAATGAAGG
DNA 2: CCTTCATTCTACGCTGTCAATCGCGTCATTCGATTTTGACCTTTCGTGACCTAGTTTGGC
B6: NRC3_wobSeed97_DR4_C29T_o1 (dsDNA)
DNA 1: GCCAAACTAGGTCACGAAAGGTCAAAGTTGAATGACGCGATTGACAGCGTAGAATGAAGG
DNA 2: CCTTCATTCTACGCTGTCAATCGCGTCATTCAACTTTGACCTTTCGTGACCTAGTTTGGC
B7: NRC3_wobSeed73_DR3_A4T_o1 (dsDNA)
DNA 1: GCCTAACTAGGTCACAGAGGTCAAAGTCCGTGCGTAGCGATTGACAGCGTAGAATGAAGG
DNA 2: CCTTCATTCTACGCTGTCAATCGCTACGCACGGACTTTGACCTCTGTGACCTAGTTAGGC
B8: NRC3_wobSeed31_DR1_A13G_o1 (dsDNA)
DNA 1: GCTCATATAGGTGAAAGGTGAAAGTCGGTGTGGTAAGCGATTGACAGCGTAGAATGAAGG
DNA 2: CCTTCATTCTACGCTGTCAATCGCTTACCACACCGACTTTCACCTTTCACCTATATGAGC
B9: NRC3_wobSeed25_DR1_A23G_o1 (dsDNA)
DNA 1: GCCAAACTAGGTCAAAGGTCAAGGTCGAGCCAACCAGCGATTGACAGCGTAGAATGAAGG
DNA 2: CCTTCATTCTACGCTGTCAATCGCTGGTTGGCTCGACCTTGACCTTTGACCTAGTTTGGC
B10: NRC3_wobSeed25_DR1_A22G_o1 (dsDNA)
DNA 1: GCCAAACTAGGTCAAAGGTCAGAGTCGAGCCAACCAGCGATTGACAGCGTAGAATGAAGG
DNA 2: CCTTCATTCTACGCTGTCAATCGCTGGTTGGCTCGACTCTGACCTTTGACCTAGTTTGGC
B11: NRC3_wobSeed25_DR1_A23C_o1 (dsDNA)
DNA 1: GCCAAACTAGGTCAAAGGTCAACGTCGAGCCAACCAGCGATTGACAGCGTAGAATGAAGG
DNA 2: CCTTCATTCTACGCTGTCAATCGCTGGTTGGCTCGACGTTGACCTTTGACCTAGTTTGGC
B12: NRC3_wobSeed49_DR2_T26G_o1 (dsDNA)
DNA 1: GCCAAACTAGGTCAAGAGGTCAAAGGCCGCTTCCCGGCGATTGACAGCGTAGAATGAAGG
DNA 2: CCTTCATTCTACGCTGTCAATCGCCGGGAAGCGGCCTTTGACCTCTTGACCTAGTTTGGC
B13: NRC3_wobSeed30_DR1_C8T_o1 (dsDNA)
DNA 1: GCACTAGTAGGCCAAGGGTCACTCAAGATTAGTCCGGCGATTGACAGCGTAGAATGAAGG
DNA 2: CCTTCATTCTACGCTGTCAATCGCCGGACTAATCTTGAGTGACCCTTGGCCTACTAGTGC

Target: PPARg:RXRa (Homo sapiens, UniProt P37231;P19793 full;full)
Sequence (P37231 29-505, chain 1 of 2): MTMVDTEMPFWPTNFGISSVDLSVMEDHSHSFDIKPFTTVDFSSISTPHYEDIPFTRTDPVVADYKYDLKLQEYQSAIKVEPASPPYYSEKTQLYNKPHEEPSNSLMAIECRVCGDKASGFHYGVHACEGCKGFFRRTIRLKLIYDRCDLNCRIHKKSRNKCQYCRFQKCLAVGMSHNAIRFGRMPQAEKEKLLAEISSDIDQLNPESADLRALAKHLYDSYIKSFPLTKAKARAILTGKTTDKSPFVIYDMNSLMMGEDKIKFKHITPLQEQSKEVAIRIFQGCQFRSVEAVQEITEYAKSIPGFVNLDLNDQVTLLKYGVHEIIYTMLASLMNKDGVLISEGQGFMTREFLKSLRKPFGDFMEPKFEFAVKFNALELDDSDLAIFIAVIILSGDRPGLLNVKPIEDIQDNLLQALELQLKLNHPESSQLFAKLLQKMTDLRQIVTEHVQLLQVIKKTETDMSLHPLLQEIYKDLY
Sequence (P19793 whole entry, chain 2 of 2): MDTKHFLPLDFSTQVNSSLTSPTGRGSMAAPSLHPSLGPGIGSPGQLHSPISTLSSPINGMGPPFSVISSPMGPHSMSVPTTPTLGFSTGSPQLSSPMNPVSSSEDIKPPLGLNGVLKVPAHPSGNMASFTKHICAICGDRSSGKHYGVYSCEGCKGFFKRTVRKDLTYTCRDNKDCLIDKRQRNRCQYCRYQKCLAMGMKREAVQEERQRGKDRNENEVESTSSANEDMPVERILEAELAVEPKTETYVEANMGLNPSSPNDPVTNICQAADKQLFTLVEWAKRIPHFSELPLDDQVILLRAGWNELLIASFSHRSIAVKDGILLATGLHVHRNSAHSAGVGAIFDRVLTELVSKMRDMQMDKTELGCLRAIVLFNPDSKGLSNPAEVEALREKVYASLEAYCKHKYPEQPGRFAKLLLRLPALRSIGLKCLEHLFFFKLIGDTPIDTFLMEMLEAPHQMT
Assay: no ligand; PBM; 180 nM : 90 nM RXRa; PBS pH 7.4, 2% milk, 0.02% Triton X-100, 1 mM DTT, BSA, 0.4 mg/ml salmon testes DNA
Settings: tags: His kept;His cleaved; copies: 1;1; label: surface-attached array probe

For B1, which binding signal is on record?
The binding signal was 11.3 PBM z-score against 500 random probes.

Which binding signal does the source give for B2 here?
Its binding signal is 11.2 PBM z-score against 500 random probes.

For B3, which binding signal is on record?
The binding signal was 12 PBM z-score against 500 random probes.

How did the binding signal turn out when B4 was run?
Its binding signal is 11.7 PBM z-score against 500 random probes.

For B5, which binding signal is on record?
The binding signal was 10.9 PBM z-score against 500 random probes.

How did the binding signal turn out when B6 was run?
The binding signal was 10.9 PBM z-score against 500 random probes.

For B7, which binding signal is on record?
The binding signal was 10.9 PBM z-score against 500 random probes.

For B8, which binding signal is on record?
The binding signal was 11.6 PBM z-score against 500 random probes.

For B9, which binding signal is on record?
Its binding signal is 14.4 PBM z-score against 500 random probes.

How did the binding signal turn out when B10 was run?
Its binding signal is 14.2 PBM z-score against 500 random probes.

Which binding signal does the source give for B11 here?
Its binding signal is 14.2 PBM z-score against 500 random probes.

With B12 as the binder, how does the binding signal read?
Its binding signal is 10.9 PBM z-score against 500 random probes.

With B13 as the binder, how does the binding signal read?
The binding signal was 10.9 PBM z-score against 500 random probes.
